Entries after “also recorded” stand apart in the source; their conditions may differ.
Assays:
[1] = tested on: DUX4 core binding motif oligos (CSF1R, TRIM48); assay: Electromobility shift assay with in vitro translated protein; design: species or system human; details: radiolabeled CSF1R and TRIM48 oligos, FIG. 15D
Procedure: EMSA was performed with ^32P-labeled 31-bp oligonucleotides from endogenous genomic sequences containing the putative DUX4 binding site as probes (sequences below; only forward shown). Radiolabeled probes were incubated with in vitro translated protein generated from pCS2-DUX4-fl or pCS2-DUX4-s^2 vectors using the TNT SP6 Coupled Wheat Germ Extract System (Promega) according to manufacturer's instructions. To obtain supershift of protein-DNA complexes, 0.1 μg of E14-3 anti-DUX4 rabbit monoclonal antibody was added to the mixtures. For competition experiments, excess unlabeled probes of either wild-type or mutant sequences were included in the binding reaction. The gels were prepared and run as previously described (Knoepfler et al., Nucleic Acids Res 27:3752-3761 (1999)).
Supershift with DUX4 antibody E14-3 confirmed the specificity of binding. […] (d) DUX4-s also binds the same core motifs; left, CSF1R; right, TRIM48. Supershift with anti-DUX4 N-terminus antibody E14-3 confirmed specificity of binding.

DUX4-fl = molecular target: T1, DUX4-fl (Homo sapiens, UniProt Q9UBX2); assay: Luciferase assay, ZSCAN4 1.9 kb enhancer/promoter reporter, co-transfection of DUX4-fl and DUX4-s; type: cell-based; details: equal amounts of DUX4-fl and DUX4-s co-transfected in RD cells; FIG. 17C
T1 construct: expressed in transfected cells; host or cells: human rhabdomyosarcoma cell line RD, transient transfection with pCS2-DUX4-fl
T1 sequence (Q9UBX2 whole entry): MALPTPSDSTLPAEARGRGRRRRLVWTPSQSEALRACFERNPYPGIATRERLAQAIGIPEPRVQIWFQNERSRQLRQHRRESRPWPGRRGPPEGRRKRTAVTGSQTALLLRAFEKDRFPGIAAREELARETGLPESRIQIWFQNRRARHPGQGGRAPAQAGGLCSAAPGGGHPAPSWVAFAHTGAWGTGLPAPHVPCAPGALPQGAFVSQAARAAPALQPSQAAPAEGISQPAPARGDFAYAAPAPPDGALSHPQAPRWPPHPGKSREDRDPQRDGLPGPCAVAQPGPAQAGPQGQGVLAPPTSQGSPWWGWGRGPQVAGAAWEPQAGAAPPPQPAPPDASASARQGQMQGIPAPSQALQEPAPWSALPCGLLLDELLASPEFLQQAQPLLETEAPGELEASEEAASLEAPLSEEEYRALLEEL
Procedure: (§1) Transient DNA transfections of RD cells were performed using SuperFect (Qiagen) according to manufacturer specifications. Briefly, 3×10^5 cells were seeded per 35 mm plate the day prior to transfection. […] Cells were lysed 24 h post-transfection in Passive Lysis Buffer (Promega). Luciferase activities were quantified using reagents from the Dual-Luciferase Reporter Assay System (Promega) following manufacturer's instructions. Light emission was measured using BioTek Synergy2 luminometer. Luciferase data are given as the averages ±SD of at least triplicates.
To determine whether DUX4 binding might directly regulate transcription of select genes, we cloned the 1.9 kb enhancer and promoter region of the ZSCAN4 gene that includes four DUX4 binding sites as follows: (DUX4 binding sites are underlined.)
The 1.9kb enhancer and promoter region of the ZCAN4 gene that includes the four DUX4 binding sites from ZCAN4 (SEQ ID NO:100) were inserted upstream of the luciferase reporter construct (pGL3 basic luciferase vector) as shown in FIG. 17A. […] Real-time RT-PCR quantitation is reported relative to internal standard RPL13a. All data represent mean+/−SD from at least triplicates.

[2] = tested on: control human muscle cells; details: cultured human skeletal muscle cells; Geng et al. 2011; cited from earlier work
[3] = tested on: endogenous retroelement MaLR transcripts; assay: MaLR expression analysis after lentiviral transduction of primary human myoblasts; type: cell-based; details: lentiviral transduction into primary human myoblasts; real-time RT-PCR relative to RPL13a; FIG. 17E
[4] = tested on: DUX4 binding sites from TRIM48 and ZSCAN4; assay: Luciferase assay, pGL3-promoter reporter with TRIM48 or ZSCAN4 DUX4 binding sites in RD cells; type: cell-based, human; details: RD cells co-transfected with DUX4-s alone; FIG. 16
Procedure: as §1
The 31 bp DUX4 binding site from TRIM48 (SEQ ID NO:96) or ZSCAN4 (SEQ ID NO:97) were inserted into the luciferase reporter construct upstream of the SV40 promoter, as shown in FIG. 16A.
(A) reporter construct structure; Genomic fragments near the TRIM48 (B) and ZSCAN4 genes (C) containing DUX4 binding sites were cloned into pGL3-promoter reporter vector (schematic, top) and transfected into human rhabdomyoscaroma cell line RD. […] TRIM48mut and ZSCAN4mut, mutated binding sites. Luciferase activity was set relative to control.

[5] = tested on: DUX4-fl target genes in FSHD muscle cells; assay: Knockdown of DUX4-fl targets in FSHD muscle cells by lentiviral DUX4-s; type: cell-based, human; details: FSHD cultured muscle cells transduced with lenti-DUX4-s, 48 hours of differentiation; real-time RT-PCR; FIG. 21
Procedure: Simultaneously, cells were transduced by lentivirus carrying DUX4-s or GFP along with 8 μg/mL polybrene. Cells were washed and changed to plain differentiation media after 24 hours. Cells were harvested for RNA after 48 hours of differentiation.
One microgram of total RNA was reverse transcribed into first strand cDNA in a 20 uL reaction using SuperScript III (Invitrogen) and digested with 1 U of RNase H (Invitrogen) for 20 min at 37° C. cDNA was diluted and used for quantitative PCR with iTaq SYBR Green supermix with ROX (Bio-Rad). The relative expression levels of target genes were normalized to those of ribosomal protein L13A (RPL13A) by 2^ΔCt. Undetermined values were equated to zero. Standard deviations from the mean of the ΔCt values were calculated from triplicates. PCR primers used for detecting the transcripts of the selected genes are listed in Supplementary methods.
Real-time RT-PCR quantitation of three DUX4 target genes, (A) PRAMEF1, (B) RFPL2 and (C) MBD3L2 in FSHD cultured muscle cells transduced with lenti-GFP or lenti-DUX4-s or untransduced. Abundance of targets was calculated relative to internal standard RPL13a and then set as percentages relative to the untransduced condition. Values represent mean+/−SEM from three independent experiments.

[6] = tested on: control human muscle cells; assay: Expression of DUX4-s in control human muscle cells, apoptosis/toxicity; type: cell-based; details: 48 hrs, data not shown
Text: Both the mRNA analysis and the immunodetection indicate that approximately 0.1% of FSHD muscle nuclei express DUX4 mRNA and protein. This could represent transient bursts of expression or stochastic activation of expression that leads to cell death, or both. […] When DUX4 is expressed in control human muscle cells by lenti-viral delivery, the DUX4 protein is distributed relatively homogeneously during the first 24 hrs and then aggregates in nuclear foci at 48 hrs when the cells are undergoing apoptosis (data not shown). These DUX4 nuclear foci associated with apoptosis are present in the nuclei of FSHD muscle cultures.

B1: DUX4-s: short splice form of DUX4 (SEQ ID NO:68) keeping the N-terminal double-homeobox domains, lacking the C-terminal domain; expressed from vector (protein, listed as Homo sapiens)
chain: MALPTPSDSTLPAEARGRGRRRRLVWTPSQSEALRACFERNPYPGIATRERLAQAIGIPEPRVQIWFQNERSRQLRQHRRESRPWPGRRGPPEGRRKRTAVTGSQTALLLRAFEKDRFPGIAAREELARETGLPESRIQIWFQNRRARHPGQGGRAPAQV
binding to DUX4 core binding site (EMSA) [1]: specifically binds the same core binding site as DUX4-fl | effect on DUX4-fl induced luciferase activity (DUX4-fl): diminishes luciferase activity; also recorded: interfered with the activity of DUX4-fl | toxicity of forced over-expression [2]: not toxic | upregulation of endogenous MaLR transcripts [3]: No upregulation | activation of luciferase expression [4]: did not activate expression | endogenous expression of DUX4-fl target genes (PRAMEF1, RFPL2, MBD3L2) [5]: inhibited the endogenous expression of the target genes; also recorded: blocks expression of DUX4-fl target genes | induction of apoptosis [6]: does not induce apoptosis

Reference: patent publication US12624396B2, “Methods for alleviating facioscapulohumeral dystrophy (FSHD) by an antisense nucleic acid molecule inhibiting the expression of double homeobox 4 (DUX4)” (Fred Hutchinson Cancer Center, priority 2010, dated 2026)
